{
  "source": "patent US12480043B2",
  "about": "“Red-light-mediated nucleic acid anchoring-type fluorescent probe, and preparation method therefor and use thereof” (SOOCHOW UNIVERSITY, priority 2020, dated 2025)",
  "key": {"[1]": {"assay": "TEM and particle size of probe in aqueous solution", "assay_type": "physicochemical", "conditions": "TEM"}, "[2]": {"assay": "UV visible near-infrared and fluorescence spectra in aqueous solution", "assay_type": "physicochemical", "conditions": "10 μM in ultrapure water"}, "[3]": {"conditions": "10 μM"}, "[4]": {"system": "4T1 mice breast cancer tumor", "procedure": "The control group probe CR and the experimental group probe f-CR were treated with PBS to a concentration of […] 200 μL. MB (PBS, 0.1) was injected into the mouse tumor 0.5 hours in advance by intratumor injection, followed by tail vein injection of CR or f-CR."}, "4T1 cells": {"system": "4T1 cells", "assay": "Cytotoxicity of probes co-incubated with MB and cells"}},
  "data": [
    {"smiles": "CC[N+]1=C(/C=C/C=C/C=C/C=C2\\N(CCCCCC(=O)NCCCCC3NC(=O)C(Cc4ccccc4)NC(=O)C(CC(=O)O)NC(=O)CNC(=O)C(CCCNC(=N)N)NC3=O)c3ccc(S(=O)(=O)O)cc3C2(C)C)C(C)(C)c2cc(S(=O)(=O)O)ccc21", "note": "(stereo not drawn) [CR]", "values": [
      {"measurement": "assembly or nanostructure", "setting": "[1]", "value": "no assembly or nanostructure was found"},
      {"measurement": "maximum absorption", "setting": "[2]", "value": 747, "unit": "nm"},
      {"measurement": "maximum emission", "setting": "[2]", "value": 789, "unit": "nm"},
      {"measurement": "solubility in ultrapure water", "setting": "[3]", "value": "completely soluble"}
    ]},
    {"smiles": "CC[N+]1=C(/C=C/C=C/C=C/C=C2\\N(CCCCCC(=O)NC(CCCCNC(=O)CCc3ccco3)C(=O)NCCCCC3NC(=O)C(Cc4ccccc4)NC(=O)C(CC(=O)O)NC(=O)CNC(=O)C(CCCNC(=N)N)NC3=O)c3ccc(S(=O)(=O)O)cc3C2(C)C)C(C)(C)c2cc(S(=O)(=O)O)ccc21", "note": "(stereo not drawn) [f-CR]", "values": [
      {"measurement": "enrichment in the tumor", "setting": "[4]; 12 hours after probe injection, f-CR+MB+660 nm, tumor sections and organ homogenates", "value": "much higher than that of other groups"},
      {"measurement": "retention time in vivo (tumor, IVIS)", "setting": "[4]; MB intratumor 0.5 hours in advance, probe 100 Mm 200 μL tail vein, 660 nm 50 mW/cm^2 3 minutes after 1 hour", "value": "much longer than that of other groups"},
      {"measurement": "toxicity without illumination", "setting": "4T1 cells; 100, 50, 20, 10, 1, 0.1 μM + MB 0.1 μM, 4T1 cells, 12 hours", "value": "neither CR nor f-CR showed significant toxicity"},
      {"measurement": "cytotoxicity after illumination", "setting": "4T1 cells; probe + MB 0.1 μM, 4T1 cells 12 hours, 660 nm 50 mW/cm 2 3 minutes, further cultured 48 hours", "value": "exhibited certain cytotoxicity"},
      {"measurement": "solubility in ultrapure water", "setting": "[3]", "value": "completely soluble"}
    ]}
  ]
}
